The labels stand for the following.
B1: Azoarcus group I ribozyme (parent)
chain: GUGCCUUGCGCCGGGAAACCACGCAAGGGAUGGUGUCAAAUUCGGCGAAACCUAAGCGCCCGCCCGGGCGUAUGGCAACGCCGAGCCAAGCUUCGGCGCCUGCGCCGAUGAAGGUGUAGAGACUAGACGGCACCCACCUAAGGCAAACGCUAUGGUGAAGGCAUAGUCCAGGGAGUGGCGAAAGUCACACAAACCGG

The values below come from the RNAGym collection of RNA variant scans (doi:10.1093/molbev/msab373).

In the series the parent is B1. The series is described as follows: reverse-splicing fitness (ratio to wild type); higher = more active; in vitro selection; Mg2+ level not given. The method in brief: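 An in vitro group I ribozyme library with randomized positions was T7-transcribed and gel-purified. In triplicate, 10 pmol RNA in EPPS pH 7.5 was reacted with 50 pmoles of a 30-nt RNA substrate for 1 h at 37 °C across several added MgCl2 levels (1–48 mM), then stopped with EDTA. Products were reverse transcribed from a substrate-complementary primer, PCR-amplified and sequenced (HiSeq 4000). Fitness is a variant's read proportion after selection over that before, normalised to wild type.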
On to A111U C169U U176C, for which the reverse-splicing fitness came out at 0.0365.
As to A111U C169U U176A, the reverse-splicing fitness stood at 0.0279.
With A111U C169U U176G the figure was 0.00752; with A111U C150A, 0.372; with A111U C150G, 0.308.
With A111U C150U the figure was 0.89; with A120C A145G C150A C169G, 0.0107.
Under A120C A145G C150A C169U stands 0.134.
For A120C A145G C150A C169A, the reverse-splicing fitness worked out at 0.0153.
With A120C A145G C150A U176A the figure was 0.263; with A120C A145G C150A U176G, 0.0729.
On to A120C A145G C150A U176C, for which the reverse-splicing fitness is 0.271.
Regarding A120C A145C C150A C169U U176A, the reverse-splicing fitness worked out at 0.0342.
With A120C A145C C150A C169U U176C the figure was 0.032.
With A120C A145C C150A C169U U176G the figure was 0.00561; with A111U A145C C150U C169G, 0.0177; with A111U A145C C150U C169U, 0.0312.
In the case of A111U A145C C150U C169A, the reverse-splicing fitness stood at 0.0113.
With A120C A145C C150A U176A the figure was 0.112.
Under A120C A145C C150A U176C stands 0.102; under A120C A145C C150A U176G, 0.0481; under A111U C150A C169U U176A, 0.0201.
As to A111U C150A C169U U176C, the reverse-splicing fitness came to 0.0188.
With A111U C150A C169U U176G the figure was 0.00721; with A111U A145G C169A U176C, 0.0305; with A111U A145G C169A U176G, 0.00593.
On to A111U A145G C169A U176A, for which the reverse-splicing fitness stood at 0.0211.
With A120C A145G C150A C169U U176C the figure was 0.0824.
With A120C A145G C150A C169U U176G the figure was 0.00697.
Turning to A120C A145G C150A C169U U176A, the reverse-splicing fitness came to 0.0678.
In the case of A111U C150U C169A, the reverse-splicing fitness was 0.02.
Under A111U C150U C169G stands 0.0372.
Regarding A111U C150U C169U, the reverse-splicing fitness was determined as 0.0631.
Under A111U A145G C150G stands 0.359; under A111U A145G C150U, 0.915.
With A111U A145G C150A the figure was 0.516.
Under A111U C150G U176G stands 0.0165; under A111U C150G U176A, 0.0805.
Consider A111U C150G U176C, for which the reverse-splicing fitness was found to be 0.124.
With A111U A145U C169G the figure was 0.0652.
As for A111U A145U C169U, the reverse-splicing fitness is 0.109.
Turning to A111U A145U C169A, the reverse-splicing fitness came to 0.0323.
Under A120C A145G C150U C169A stands 0.0324; under A120C A145G C150U C169U, 0.432.
Under A120C A145G C150U C169G stands 0.0232; under A111U A145G C150U C169U U176G, 0.00652; under A111U A145G C150U C169U U176A, 0.025.
Under A111U A145G C150U C169U U176C stands 0.0314; under A120C A145G C150U C169U U176G, 0.0092.
As to A120C A145G C150U C169U U176C, the reverse-splicing fitness turned out to be 0.186.
With A120C A145G C150U C169U U176A the figure was 0.125; with A111U C150U C169A U176C, 0.0138; with A111U C150U C169A U176A, 0.015.
With A111U C150U C169A U176G, the reverse-splicing fitness turned out to be 0.00669.
With A111U A145U C150A, the reverse-splicing fitness amounted to 0.379.
With A111U A145U C150U, the reverse-splicing fitness turned out to be 0.88.
With A111U A145U C150G the figure was 0.41; with A111U A145U U176C, 0.767; with A111U A145U U176A, 0.747.
Take A111U A145U U176G: the reverse-splicing fitness is 0.364.
Under A120C A145G C150G C169G U176A stands 0.00996.
Under A120C A145G C150G C169G U176C stands 0.0135.
With A120C A145G C150G C169G U176G the figure was 0.00533; with A111U A145G C150G U176C, 0.171; with A111U A145G C150G U176G, 0.0223.
A111U A145G C150G U176A: the reverse-splicing fitness was 0.0997.
Under A120C A145G C150G C169A U176A stands 0.0131; under A120C A145G C150G C169A U176G, 0.00789.
Under A120C A145G C150G C169A U176C stands 0.0132; under A120C A145C C169U U176A, 0.143.
Under A120C A145C C169U U176C stands 0.177; under A120C A145C C169U U176G, 0.0155; under A111U A145C C169A U176C, 0.00885.
On to A111U A145C C169A U176G, for which the reverse-splicing fitness is 0.00602.
Regarding A111U A145C C169A U176A, the reverse-splicing fitness was determined as 0.0105.
With A120C A145G C150G C169U U176A the figure was 0.0149; with A120C A145G C150G C169U U176C, 0.0406; with A120C A145G C150G C169U U176G, 0.00611.
As for A111U A145C C169U U176G, the reverse-splicing fitness was determined as 0.0061.
In the case of A111U A145C C169U U176C, the reverse-splicing fitness stood at 0.0265.
Take A111U A145C C169U U176A: the reverse-splicing fitness was determined as 0.0252.
A111U A145C U176G: the reverse-splicing fitness came to 0.329.
Under A111U A145C U176C stands 0.706; under A111U A145C U176A, 0.757; under A120C A145G C150G U176A, 0.0905.
With A120C A145G C150G U176G the figure was 0.019.
Regarding A120C A145G C150G U176C, the reverse-splicing fitness worked out at 0.146.
On to A120C A145C C150U C169G U176G, for which the reverse-splicing fitness is 0.00381.
Under A120C A145C C150U C169G U176A stands 0.0156.
A120C A145C C150U C169G U176C: the reverse-splicing fitness was 0.00823.
With A111U U176A the figure was 0.823.
With A111U U176G the figure was 0.288.
A111U U176C: the reverse-splicing fitness was determined as 0.793.
Take A120C A145C C150G C169A U176C: the reverse-splicing fitness was determined as 0.00596.
On to A120C A145C C150G C169A U176A, for which the reverse-splicing fitness stood at 0.00776.
With A120C A145C C150G C169A U176G the figure was 0.00424; with A111U A145C C150U, 0.661.
Under A120C A145C U176A stands 0.693; under A120C A145C U176G, 0.266; under A120C A145C U176C, 0.574.
Regarding A111U A145G C150G C169G U176A, the reverse-splicing fitness is 0.00998.
With A111U A145G C150G C169G U176C the figure was 0.0116.
With A111U A145G C150G C169G U176G, the reverse-splicing fitness turned out to be 0.00597.
Regarding A120C A145G C150A C169G U176A, the reverse-splicing fitness was 0.017.
Regarding A120C A145G C150A C169G U176C, the reverse-splicing fitness is 0.0234.
With A120C A145G C150A C169G U176G the figure was 0.00453.
Take A111U C150G C169G: the reverse-splicing fitness came out at 0.00998.
A111U C150G C169U: the reverse-splicing fitness worked out at 0.0141.
With A111U C150G C169A the figure was 0.00956; with A120C A145G C150U U176A, 0.626; with A111U A145G C150U U176G, 0.22.
Under A111U A145G C150U U176A stands 0.591; under A111U A145G C150U U176C, 0.692.
With A111U A145U C150A C169U U176A the figure was 0.0151; with A111U A145U C150A C169U U176C, 0.0162.
For the variant A111U A145U C150A C169U U176G, the reverse-splicing fitness was found to be 0.00626.
For the variant A111U C169G U176G, the reverse-splicing fitness came to 0.00596.
With A111U C169G U176C the figure was 0.0333; with A111U C169G U176A, 0.02; with A111U A145U C150U C169U U176C, 0.0268.
Turning to A111U A145U C150U C169U U176A, the reverse-splicing fitness was determined as 0.022.
With A111U A145U C150U C169U U176G the figure was 0.00684; with A120C A145C C150U, 0.46; with A120C A145C C150A, 0.128.
As to A120C A145C C150G, the reverse-splicing fitness came out at 0.279.
Under A111U A145U C150G U176C stands 0.193; under A111U A145U C150G U176G, 0.025; under A111U A145U C150G U176A, 0.138.
Turning to A111U A145U C150G C169G U176G, the reverse-splicing fitness came out at 0.00534.
On to A111U A145U C150G C169G U176A, for which the reverse-splicing fitness is 0.00711.
For A111U A145U C150G C169G U176C, the reverse-splicing fitness is 0.00535.
With A120C A145C C169G U176C the figure was 0.0103.
In the case of A120C A145C C169G U176A, the reverse-splicing fitness came to 0.0163.
Turning to A120C A145C C169G U176G, the reverse-splicing fitness is 0.00338.
With A120C A145C C169G the figure was 0.0239.
Regarding A120C A145C C169A, the reverse-splicing fitness came to 0.0312.
Under A120C A145C C169U stands 0.431.
With A111U C150A U176A, the reverse-splicing fitness amounted to 0.207.
With A111U C150A U176G the figure was 0.0846.
As to A111U C150A U176C, the reverse-splicing fitness stood at 0.251.
Under A111U C150G C169U U176C stands 0.0145; under A111U C150G C169U U176G, 0.00634.
Turning to A111U C150G C169U U176A, the reverse-splicing fitness came out at 0.00776.
For A111U A145U C150A C169A U176C, the reverse-splicing fitness came out at 0.00995.
With A111U A145U C150A C169A U176A the figure was 0.0131.
Turning to A111U A145U C150A C169A U176G, the reverse-splicing fitness was found to be 0.00582.
With A111U A145C C169G U176G the figure was 0.00585; with A111U A145C C169G U176C, 0.0232; with A111U A145C C169G U176A, 0.0286.
With A111U A145G C169G, the reverse-splicing fitness turned out to be 0.0699.
Under A111U A145G C169U stands 0.111.
In the case of A111U A145G C169A, the reverse-splicing fitness came out at 0.0306.
With A111U A145G C150U C169A U176G the figure was 0.00732; with A111U A145G C150U C169A U176A, 0.0155.
In the case of A111U A145G C150U C169A U176C, the reverse-splicing fitness came out at 0.017.
Under A120C A145G C150A C169A U176G stands 0.00483; under A120C A145G C150A C169A U176C, 0.0217; under A120C A145G C150A C169A U176A, 0.0168.
With A111U A145U C150G C169U U176C the figure was 0.0129; with A111U A145U C150G C169U U176A, 0.00897; with A111U A145U C150G C169U U176G, 0.00601.
Under A111U C150A C169A U176A stands 0.0182; under A111U C150A C169A U176G, 0.00646.
On to A111U C150A C169A U176C, for which the reverse-splicing fitness came to 0.0168.
With A120C A145C C150G C169G the figure was 0.00786; with A120C A145C C150G C169A, 0.0111; with A120C A145C C150G C169U, 0.117.
